The values that follow are results of earlier work, collected in article PMC3265123.

Where two headings read alike, the source gives them in different places.

For data set [1], the target named is gC1qR (Homo sapiens) (UniProt Q07021).
For data set [2] the target is unchanged. The source holds these as a separate data set.

Sequence of UniProt Q07021 (Q07021 74-282): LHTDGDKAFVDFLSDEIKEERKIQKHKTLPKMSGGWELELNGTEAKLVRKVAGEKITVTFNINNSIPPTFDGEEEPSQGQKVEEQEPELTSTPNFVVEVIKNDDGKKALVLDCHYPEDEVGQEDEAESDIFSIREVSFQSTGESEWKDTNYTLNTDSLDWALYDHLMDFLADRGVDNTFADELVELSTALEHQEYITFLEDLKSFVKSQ

Turning to “high molecular weight kininogen (from UniProt P01042)”, the Kd is 0.8 nM with gC1qR (Homo sapiens) [1] and 9 nM in the data set with gC1qR (Homo sapiens) [2].
